Substitutions are numbered along the chain they refer to.

Series [1] concerns T1, SaMhqR A63E A63E (Staphylococcus aureus COL), ORF:0a4449b0.
T1 sequence: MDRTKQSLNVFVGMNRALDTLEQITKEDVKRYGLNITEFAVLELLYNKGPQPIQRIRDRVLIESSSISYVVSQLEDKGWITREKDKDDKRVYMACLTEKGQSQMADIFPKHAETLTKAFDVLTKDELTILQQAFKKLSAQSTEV
Description: EMSA. The following applies: EMSA: 15 ng probe, 0.01-1.0 uM protein, 60 min; for MHQ tests protein diluted to 0.6 uM in 10 mM Tris-HCl pH 7.5 and treated with 0.5-100 mM MHQ for 30 min at ….

In series [2] the test system is T2, SaMhqR D88A D88A (Staphylococcus aureus COL), ORF:0a4449b0.
T2 sequence: T1 sequence with E63A, D88A
Put plainly: EMSA. The following applies: EMSA: 15 ng probe, 0.01-1.0 uM protein, 60 min; for MHQ tests protein diluted to 0.6 uM in 10 mM Tris-HCl pH 7.5 and treated with 0.5-100 mM MHQ for 30 min at …. In general terms: In EMSA bound probe runs differently from free probe, usually more slowly.

The test system of series [3] is T3, SaMhqR E38A E38A (Staphylococcus aureus COL), ORF:0a4449b0.
T3 sequence: T1 sequence with E38A, E63A
Description: EMSA. The following applies: EMSA: 15 ng probe, 0.01-1.0 uM protein, 60 min; for MHQ tests protein diluted to 0.6 uM in 10 mM Tris-HCl pH 7.5 and treated with 0.5-100 mM MHQ for 30 min at ….

In series [4] the test system is T4, SaMhqR E43A E43A (Staphylococcus aureus COL), ORF:0a4449b0.
T4 sequence: T1 sequence with E43A, E63A
Description: EMSA. Particulars: EMSA: 15 ng probe, 0.01-1.0 uM protein, 60 min; for MHQ tests protein diluted to 0.6 uM in 10 mM Tris-HCl pH 7.5 and treated with 0.5-100 mM MHQ for 30 min at ….

For series [5], the system named is T5, SaMhqR E43A,H111A E43A;H111A (Staphylococcus aureus COL), ORF:0a4449b0.
T5 sequence: T1 sequence with E43A, E63A, H111A
Description: EMSA. The following applies: EMSA: 15 ng probe, 0.01-1.0 uM protein, 60 min; for MHQ tests protein diluted to 0.6 uM in 10 mM Tris-HCl pH 7.5 and treated with 0.5-100 mM MHQ for 30 min at ….

Series [6] relates to T6, SaMhqR F11A F11A (Staphylococcus aureus COL), ORF:0a4449b0.
T6 sequence: T1 sequence with F11A, E63A
Put plainly: EMSA. Particulars: EMSA: 15 ng probe, 0.01-1.0 uM protein, 60 min; for MHQ tests protein diluted to 0.6 uM in 10 mM Tris-HCl pH 7.5 and treated with 0.5-100 mM MHQ for 30 min at ….

Series [7] relates to T7, SaMhqR F39A F39A (Staphylococcus aureus COL), ORF:0a4449b0.
T7 sequence: T1 sequence with F39A, E63A
Put plainly: EMSA. Particulars: EMSA: 15 ng probe, 0.01-1.0 uM protein, 60 min; for MHQ tests protein diluted to 0.6 uM in 10 mM Tris-HCl pH 7.5 and treated with 0.5-100 mM MHQ for 30 min at ….

Series [8] relates to T8, SaMhqR H111A H111A (Staphylococcus aureus COL), ORF:0a4449b0.
T8 sequence: T1 sequence with E63A, H111A
Put plainly: EMSA. Particulars: EMSA: 15 ng probe, 0.01-1.0 uM protein, 60 min; for MHQ tests protein diluted to 0.6 uM in 10 mM Tris-HCl pH 7.5 and treated with 0.5-100 mM MHQ for 30 min at ….

The test system of series [9] is T9, SaMhqR K89A K89A (Staphylococcus aureus COL), ORF:0a4449b0.
T9 sequence: T1 sequence with E63A, K89A
Description: EMSA. Particulars: EMSA: 15 ng probe, 0.01-1.0 uM protein, 60 min; for MHQ tests protein diluted to 0.6 uM in 10 mM Tris-HCl pH 7.5 and treated with 0.5-100 mM MHQ for 30 min at ….

Series [10] concerns T10, SaMhqR Q54A Q54A (Staphylococcus aureus COL), ORF:0a4449b0.
T10 sequence: T1 sequence with Q54A, E63A
Description: EMSA. Particulars: EMSA: 15 ng probe, 0.01-1.0 uM protein, 60 min; for MHQ tests protein diluted to 0.6 uM in 10 mM Tris-HCl pH 7.5 and treated with 0.5-100 mM MHQ for 30 min at ….

For series [11], the system named is T11, SaMhqR Q73A Q73A (Staphylococcus aureus COL), ORF:0a4449b0.
T11 sequence: T1 sequence with E63A, Q73A
Description: EMSA. The following applies: EMSA: 15 ng probe, 0.01-1.0 uM protein, 60 min; for MHQ tests protein diluted to 0.6 uM in 10 mM Tris-HCl pH 7.5 and treated with 0.5-100 mM MHQ for 30 min at ….

The subject of series [12] is T12, SaMhqR R90A R90A (Staphylococcus aureus COL), ORF:0a4449b0.
T12 sequence: T1 sequence with E63A, R90A
Description: EMSA. Particulars: EMSA: 15 ng probe, 0.01-1.0 uM protein, 60 min; for MHQ tests protein diluted to 0.6 uM in 10 mM Tris-HCl pH 7.5 and treated with 0.5-100 mM MHQ for 30 min at ….

Series [13] concerns T13, SaMhqR S64A S64A (Staphylococcus aureus COL), ORF:0a4449b0.
T13 sequence: T1 sequence with E63A, S64A
Description: EMSA. The following applies: EMSA: 15 ng probe, 0.01-1.0 uM protein, 60 min; for MHQ tests protein diluted to 0.6 uM in 10 mM Tris-HCl pH 7.5 and treated with 0.5-100 mM MHQ for 30 min at ….

Series [14] deals with T14, SaMhqR S65A S65A (Staphylococcus aureus COL), ORF:0a4449b0.
T14 sequence: T1 sequence with E63A, S65A
Put plainly: EMSA. The following applies: EMSA: 15 ng probe, 0.01-1.0 uM protein, 60 min; for MHQ tests protein diluted to 0.6 uM in 10 mM Tris-HCl pH 7.5 and treated with 0.5-100 mM MHQ for 30 min at ….

Series [15] has as its system T15, SaMhqR S66A S66A (Staphylococcus aureus COL), ORF:0a4449b0.
T15 sequence: T1 sequence with E63A, S66A
Put plainly: EMSA. The following applies: EMSA: 15 ng probe, 0.01-1.0 uM protein, 60 min; for MHQ tests protein diluted to 0.6 uM in 10 mM Tris-HCl pH 7.5 and treated with 0.5-100 mM MHQ for 30 min at ….

The subject of series [16] is T16, SaMhqR S68A S68A (Staphylococcus aureus COL), ORF:0a4449b0.
T16 sequence: T1 sequence with E63A, S68A
Description: EMSA. Particulars: EMSA: 15 ng probe, 0.01-1.0 uM protein, 60 min; for MHQ tests protein diluted to 0.6 uM in 10 mM Tris-HCl pH 7.5 and treated with 0.5-100 mM MHQ for 30 min at ….

Series [17] has as its system T17, SaMhqR V70A V70A (Staphylococcus aureus COL), ORF:0a4449b0.
T17 sequence: T1 sequence with E63A, V70A
Description: EMSA. The following applies: EMSA: 15 ng probe, 0.01-1.0 uM protein, 60 min; for MHQ tests protein diluted to 0.6 uM in 10 mM Tris-HCl pH 7.5 and treated with 0.5-100 mM MHQ for 30 min at ….

The test system of series [18] is T18, SaMhqR V91A V91A (Staphylococcus aureus COL), ORF:0a4449b0.
T18 sequence: T1 sequence with E63A, V91A
Put plainly: EMSA. Particulars: EMSA: 15 ng probe, 0.01-1.0 uM protein, 60 min; for MHQ tests protein diluted to 0.6 uM in 10 mM Tris-HCl pH 7.5 and treated with 0.5-100 mM MHQ for 30 min at ….

For series [19], the system named is T19, SaMhqR WT (Staphylococcus aureus COL), ORF:0a4449b0.
T19 sequence: T1 sequence with E63A
Description: EMSA. Particulars: EMSA: 15 ng probe, 0.01-1.0 uM protein, 60 min; for MHQ tests protein diluted to 0.6 uM in 10 mM Tris-HCl pH 7.5 and treated with 0.5-100 mM MHQ for 30 min at ….

The subject of series [20] is T20, SaMhqR Y69A Y69A (Staphylococcus aureus COL), ORF:0a4449b0.
T20 sequence: T1 sequence with E63A, Y69A
Put plainly: EMSA. Particulars: EMSA: 15 ng probe, 0.01-1.0 uM protein, 60 min; for MHQ tests protein diluted to 0.6 uM in 10 mM Tris-HCl pH 7.5 and treated with 0.5-100 mM MHQ for 30 min at ….

The test system of series [21] is T21, SaMhqR Y92A Y92A (Staphylococcus aureus COL), ORF:0a4449b0.
T21 sequence: T1 sequence with E63A, Y92A
Description: EMSA. The following applies: EMSA: 15 ng probe, 0.01-1.0 uM protein, 60 min; for MHQ tests protein diluted to 0.6 uM in 10 mM Tris-HCl pH 7.5 and treated with 0.5-100 mM MHQ for 30 min at ….

Series [22] concerns the target MarR-type repressor MhqR of Staphylococcus aureus (SaMhqR), wild type, C-terminally His-tagged (Staphylococcus aureus (COL)). Description: SEC-MALS; Superdex 200 Increase 10/300, HEPES buffer (20 mM HEPES, 20 mM MgCl2, 200 mM NaCl, 20 mM KCl). For orientation: SEC sorts molecules by how far they enter the pores of the column.

“ACATATCAACTCCTATCATGATTGATTATAGTATTTCCCTATTCTATTTTAACTTAAACGAAGTCAAAGGTGCATGACAGTCATGTGACGACATTGCCACATCTATGTAGTCGTTTTTATTAAGCACAGTTTGAAATGAAGATGAAAACACGTATCTTGACATTAAATCTATTCAGTTATATAATTTATCTCGAAATCGAAATAAAATAAAAAAGTTGGTGATCATATGGATCGAACG (double strand) [mhqRED promoter probe]”: the binding result is on record as “binds more weakly” in series [1]; “binds more weakly” in series [2]; “binds more weakly” in [3]; “binds” in series [4]; “no binding” in series [5]; “binds more weakly” in series [6]. Besides, the binding entry in series [7], in series [8], in series [9], in series [10], in [11] and in series [12] was “binds more weakly” in each case. The binding result is given as “binds” in [13]; “binds more weakly” in series [14]; “binds more weakly” in series [15]; “binds more weakly” in series [16]; “binds more weakly” in [17]; “binds more weakly” in series [18]. In addition, the binding result is “binds” in [19], “binds more weakly” in series [20] and “binds more weakly” in series [21].
Turning to “MarR-type repressor MhqR of Staphylococcus aureus (SaMhqR), wild type, C-terminally His-tagged (natural protein)”, in series [22], the stoichiometry N came out at 2.

One may read the stoichiometry N as the number of molecules, sites or subunits per partner or assembly.

Source of the values: article PMC12893000, “Structural basis of quinone sensing by the MarR-type repressor MhqR in Staphylococcus aureus” (mBio, 2025).
